From US20240124575A1 (SIMCERE ZAIMING PHARMACEUTICAL, published 2024) come the findings set out here.

The target of assay [1] is T1, monkey CD33-His protein (monkey).
T1 construct: also called monkey CD33 protein
Put plainly: ELISA on coated monkey CD33-his.

Assay [2] concerns the target T1, monkey CD33-His protein. As to the kind of experiment: ELISA on coated monkey CD33-his. This is another data set of the same source. A general note: An ELISA detects its analyte on a solid surface through an enzyme-linked reagent.
Assay [3] has as its target T2, human CD33-His (extracellular domain Asp 18-His 259) (human, UniProt P20138 18-259).
T2 construct: range 18-259; bought protein; also called hCD33-his; human CD33 protein; not shown: His tag
As to the kind of experiment: competitive ELISA vs coated SGN-33 3ug/mL; soluble 25ug/ml.

Assay [4] concerns the target T2, human CD33-His (extracellular domain …). As to the kind of experiment: competitive ELISA vs coated S006-NB146-46 2ug/mL; soluble 25ug/ml. As to the method:
VHH antibodies and control antibodies with known epitopes were subjected to epitope classification with competitive ELISA. ELISA plates were coated with 2 μg/mL antibodies according to the method in Example 5.1; the human CD33-his protein was subjected to a gradient dilution from 30 μg/mL, and EC80 values (Tables 26-27) were calculated. ELISA plates were coated with 2 μg/mL antibodies; after 25 µg/mL of antibodies to be tested were added, a human CD33-his protein having an EC80 concentration corresponding to each of the antibodies to be tested was then added for incubation for 2 h. The plates were washed 5 times with PBS, then HRP-labeled anti-His antibodies (purchased from GenScript, Cat. No. A00612) were added for incubation for 1 h, and the plates were washed 5 times. A TMB substrate was added at 50 μL/well and incubated at room temperature for 10 min, then a stop solution (1.0 M HCl) was added at 50 μL/well. OD_{450 nm} values were read using an ELISA plate reader (Insight, purchased from PerkinElmer), and the competition rate between the antibodies was calculated according to the OD_{450 nm} values using a formula. The results are shown in FIGS. 12A-12B, the higher the value of the competition rate, the closer the epitopes to which two antibodies bind.

Assay [5] shares this target. Put plainly: ELISA on coated human CD33-his. The protocol:
In order to assay the binding activity of VHH-Fc to human CD33 protein, a human CD33-his protein (purchased from ACROBiosystems, Cat. No. CD3-H5226) was diluted with PBS to make a final concentration of 2 μg/mL, and then added into a 96-well ELISA plate at 100 μL/well. The plate was sealed with a plastic film and incubated at 4° C. overnight, washed twice with PBS the next day, and a blocking solution [PBS+2% (w/w) BSA] was added for blocking at room temperature for 2 h. The blocking solution was discarded, and VHH-Fc antibody or negative control antibody serially diluted from 100 nM was added at 50 μL/well. After incubation at 37° C. for 2 h, the plate was washed 3 times with PBS. A secondary antibody labeled with HRP (horseradish peroxidase) (purchased from Sigma, Cat. No. A0170) was added. After incubation for 1 h at 37° C., the plate was washed 5 times with PBS. A TMB substrate was added at 50 μL/well. After incubation at room temperature for 10 min, a stop solution (1.0 N HCl) was added at 50 μL/well. The OD450 nm values were read on an ELISA plate reader (Multimode Plate Reader, EnSight, purchased from Perkin Elmer). The assay results for the binding of the VHH-Fc to hCD33-his by ELISA are shown in FIGS. 7A and 7B and Tables 11 and 12. […] The IgG control was hIgG1, and the data in the table are OD450 nm values. […]

Assay [6] deals with T3, human CD33 on U937 cells (endogenous) (human, UniProt P20138 18-364).
T3 construct: whole, on cells
T3 sequence (P20138 18-364): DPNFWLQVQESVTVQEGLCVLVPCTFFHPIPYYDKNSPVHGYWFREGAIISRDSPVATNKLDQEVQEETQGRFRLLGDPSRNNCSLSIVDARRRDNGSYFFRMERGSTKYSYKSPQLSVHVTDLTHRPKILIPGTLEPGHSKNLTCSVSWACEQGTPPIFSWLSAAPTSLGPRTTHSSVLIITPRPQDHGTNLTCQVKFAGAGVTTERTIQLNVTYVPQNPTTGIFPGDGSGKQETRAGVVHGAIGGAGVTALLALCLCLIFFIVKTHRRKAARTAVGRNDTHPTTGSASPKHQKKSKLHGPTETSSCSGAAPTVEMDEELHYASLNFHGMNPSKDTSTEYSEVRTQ
Put plainly: FACS, U937 cells. The protocol:
The desired cells were expanded to a logarithmic growth phase in a T-75 cell culture flask. For adherent cells CHO-K1, the culture medium was removed by pipetting, and the cells were washed twice with a PBS buffer, digested with trypsin, and washed twice with a PBS buffer again after the digestion was stopped. For suspension cells U937, the medium supernatant was discarded by direct centrifugation, and the cell pellet was washed twice with PBS, and then incubated with a buffer containing human Fc Block (purchased from BD, Cat. No. 564220) for 15 min. After the cells obtained in the last step were subjected to cell counting, the cell pellet was resuspended to 2×10⁶ cells/mL with a blocking solution [PBS+2% (w/w) BSA] and added to a 96-well FACS reaction plate at 50 μL/well. The VHH-Fc antibody (a sample to be tested) was added at 50 μL/well, and the plate was incubated on ice for 2 h. […] After the plate was centrifuged and washed 5 times with a PBS buffer, the results were assayed and analyzed by FACS (FACS Canto™, purchased from BD Biosciences), so as to obtain the mean fluorescence intensity (MFI) of cells. Then, analysis was performed by software (GraphPad Prism8), data were fitted, and EC50 values were calculated.

A further assay has as its target T4, human CD33-his protein (human, UniProt P20138 18-259).
T4 construct: range 18-259; bought protein; also called hCD33-his; recombinant human CD33-his; not shown: His tag
As to the kind of experiment: competition ELISA, coated human CD33-his, vs Biotin-C33B904 at EC80; antibody 250.00 nM. The protocol: ELISA plates were coated with 2 μg/mL human CD33-his protein according to the method in Example 5.1; the Biotin-C331B904 antibody was subjected to a gradient dilution from 15 μg/mL, and EC80 values (0.18 μg/mL) were calculated. ELISA plates were coated with 2 μg/mL human CD33-his protein; starting from 40 μg/mL, the VHH antibodies to be tested were diluted in a 1:2 dilution ratio to obtain seven concentrations and added to the ELISA plates, and then Biotin-C331904 antibodies with the EC80 concentrations were added for incubation for 2 h. The plates were washed 5 times with PBS and then […] (purchased from Sigma, Cat. No. S2438) were added for incubation for 1 h, and the plates were washed 5 times. A TMB substrate was added at 50 μL/well and incubated at room temperature for 10 min, then a stop solution (1.0 M HCl) was added at 50 μL/well. OD_{450 nm} values were read using an ELISA plate reader (Insight, purchased from PerkinElmer). Then, analysis was performed by software (GraphPad Prism8), and data were fitted for curve plotting. The results are shown in FIGS. 13A-13B and Tables 28 and 29.

Like-named read-outs stand apart in the source and are kept apart here.

T2 sequence (P20138 18-259 limits assumed): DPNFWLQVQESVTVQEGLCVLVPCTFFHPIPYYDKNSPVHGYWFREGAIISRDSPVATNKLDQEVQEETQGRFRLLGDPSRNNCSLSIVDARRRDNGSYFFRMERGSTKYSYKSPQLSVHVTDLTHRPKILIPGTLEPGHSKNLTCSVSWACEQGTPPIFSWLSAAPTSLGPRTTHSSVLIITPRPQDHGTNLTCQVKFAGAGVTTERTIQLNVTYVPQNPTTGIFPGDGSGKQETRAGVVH
T4 sequence (P20138 18-259 limits assumed): as above

B1: C33B904 hIgG1 (antibody, V domains shown)
VH: EVQLVESGGGLVQPGRSLRLSCAASGFTFDDYAMHWVRQAPGKGLEWVSGIGWSGGSIVYADSVKGRFTISRDNAKNSLYLQMNSLRAEDTALYYCAKDSPYGDFFDYWGQGTLVTVSS
VL: DIVMTQSPDSLAVSLGERATINCKSSQTVFYSSNNKNYLAWYQQKPGQPPKLLISWASTRKSGVPDRFSGSGSGTDFTLTVSSLQAEDVAVYYCQHYYSTPYTFGQGTKLEIKR
notes: intact human IgG1; variable regions from US20190382481A1; also called C33B3904; C331B904
The term EC50 (read off the curve) denotes the midpoint of the concentration-response curve. For orientation: EC50 means the midpoint of the concentration-response curve. Turning to B1, the results for the “EC50 (read off the curve)” value (with monkey CD33-His protein [1]; in the assay with monkey CD33-His protein [2]; in assay [5]) were ~0.2 nM, ~0.2 nM and ~0.3 nM, respectively. The inhibition rate turned out to be 14% in assay [3] and 92% in assay [4]. For the same molecule, the EC50 in assay [6] stood at 8.41 nM. The “Max MFI” value in assay [6] was determined as 599 MFI.

B2: C33B904 (antibody, human IgG1, kappa, V domains shown)
VH: B1 VH
VL: B1 VL
notes: control antibody, intact human IgG1 form; variable regions from US20190382481A1; also called C33B904 hIgG1; C331B904
Regarding B2, the “OD450 (Biotin-C33B904 signal)” value with human CD33-his protein was determined as 0.1.
